Test results: patent US20070292909A1 (RIKEN, published 2007)

Key:
[1] = target: the molecule itself; assay: ultracentrifugal analysis of self-association: 28 kDa measured, 26 kDa predicted
Experimental: An mKO protein solution with the composition consisting of 150 mM KCl and 50 mM HEPES-KOH (pH 7.4) was prepared. The molecular weight of mKO was determined by ultracentrifugal analysis. The above solution was centrifuged with an ultracentrifuge XL-1 (Beckman Coulter) at 25,000 rpm for 22 hours, so as to measure absorption at 540 nm around the maximum absorption (548 nm) of mKO. From the measurement results, the molecular weight of mKO was calculated to be 28 kDa (FIG. 3). This value was almost the same as 26 kDa predicted from the amino acid sequence, and thus it was confirmed that mKO exists in the form of a monomer.

[2] = target: the molecule itself; assay: ultracentrifugal molecular weight measurement of self-association

B1: monomerized Kusabira-Orange (mKO) (other)
chain: MVSVIKPEMKMRYYMDGSVNGHEFTIEGEGTGRPYEGHQEMTLRVTMAKGGPMPFAFDLVSHVFCYGHRPFTKYPEEIPDYFKQAFPEGLSWERSLEFEDGGSASVSAHISLRGNTFYHKSKFTGVNFPADGPIMQNQSVDWEPSTEKITASDGVLKGDVTMYLKLEGGGNHKCQFKTTYKAAKKILKMPGSHYISHRLVRKTEGNITELVEDAVAHS
notes: also called KO mutant
binding result [1]: no binding

B2: cmkeima 620 (other)
chain: MRGSHHHHHHGMASMTGGQQMGRDLYDDDDKDPMVSVIAKQMTYKVYMSGTVNGHYFEVEGDGKGKPYEGEQTVKLTVTKGGPLPFAWDILSPQFQYGSIPFTKYPEDIPDYFKQSFPEGYTWERSMNFEDGAVCTVSNDSSIQGNCFIYNVKISGENFPPNGPVMQKKTQGWEPSTERLFARDGMLIGNDYMALKLEGGGHYLCEFKSTYKAKKPVRMPGRHEIDRKLDVTSHNRDYTSVEQCEIAIARHSLLG
binding result [2]: no binding
